In paper PMC4840364 (Scientific Reports, 2016):
Changes are numbered by the printed parent chain.

Molecular target: T1, glycoprotein Ibα (GPIbα) on human platelets (Homo sapiens, UniProt P07359)
T1 construct: human platelet glycoprotein Ibα, endogenous on platelets; On platelets GPIbα stands in the GPIb-IX complex with GPIbβ and GPIX; also called full length GPIbα expressed on the cell surface; source: endogenous, on human platelets
Assay: flow cytometry on cells; human platelets (1.5 x 10^6 cells/well) incubated with Fab fragments at room temperature for 20 min, FITC-conjugated goat anti-mouse IgG, MFI of 10,000 cells
Details: one partner purified

B1: wild-type 5G6 Fab fragment (recombinant) (Fab, V domains shown)
VH: QVTLKESGPGILQPSQTLSLTCSFSGFSLSTSNMGVVWIRQPSGKGLEWLLHILWNDGKFYNPALKSRLTISKDTYNNQVFLKIANVDTADTATYYCARLFTTTTSGYFDVWGAGTTVTVSS
VL: DIQMTQSPASLSASVGETVTITCRASGNIYNYLAWYQQKQGKSPQLLVYNAKTLADGVPSRFSGSGSGTQYSLKINSLQPEDFGSYFCQHFWDTPWTFGGGTKLEIK
notes: heavy chain of 5G6 Fab, as the heavy chain of m1; light chain of 5G6 Fab, as the light chain of m1; cDNA of both chains cloned from 5G6 hybridoma mRNA into pcDNA3.1 with a C-terminal 6xHis tag; also called 5G6-WT; source: CHO cells, transiently cotransfected, purified from medium (Ni-NTA, Superdex 200)
binding result: binds

B2: mutant 5G6 Fab 5G6-M2 (Fab, V domains shown)
VH: B1 VH with T102A, T103A, T104A, T105A
VL: B1 VL with D93A
notes: as the heavy chain of m2 with Thr102-105 of CDRH3 replaced with Ala; as the light chain of m2 with Asp93 of CDRL3 replaced with Ala; five point mutations in the interface
binding result: no binding
